This experiment deals with T1, 재조합 인간 TIGIT 단백질 (Acro Biosystems) (human, UniProt Q495A1 22-141).
T1 construct: Bought recombinant protein; also called recombinant human TIGIT; TIGIT 항원
T1 sequence: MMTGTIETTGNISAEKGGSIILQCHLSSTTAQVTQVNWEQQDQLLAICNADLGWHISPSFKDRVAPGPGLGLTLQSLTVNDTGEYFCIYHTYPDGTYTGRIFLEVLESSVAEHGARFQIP
In words: SPR, Biacore T200 multi-cycle kinetics, 25C; antibody captured on anti-human IgG CM5 chip, recombinant human TIGIT as analyte; 1:1 model. Background: Surface plasmon resonance follows binding to a sensor surface in real time, without labels.

Experimental findings from patent KR20230171885A (dated 2023) are described below.

A word on the Kd: it is the concentration at which binding is half-saturated. A word on the koff: it is the first-order rate constant of dissociation. The kon is a measure of how fast the partners come together.

B1: 항-TIGIT 항체 7A6 (7A6_VH3/Vk5) (antibody, human IgG1, kappa, V domains shown)
VH: QVQLQESGPGLVKPSQTLSLTCTVTGYSITSDYAWNWIRQPPGKGLEWMGYISYSGSARYNPSLKSRVTISRDTSKNQFSLKLSSVTAEDTATYYCARKGYPAYFAYWGQGTLVTVSS
VL: DIQMTQSPSSLSASVGDRVSITCKASQDVSTAVAWYQQKPGQAPRLLIYSASYRYTGVPDRFSGSGSGTDFTLTISSLQPEDFATYYCQHHYSTPYTFGQGTKLEIKR
notes: Parental IgG1/kappa antibody without RS15; also called 7A6 VH3/Vκ5; Parental Ab (7A6)
Regarding B1, the Kd was determined as 0.884 nM, the koff worked out at 0.00158 s⁻¹ and the kon is 1.78e+06 M⁻¹ s⁻¹.
